Source: paper PMC8063088

How the values were obtained:
[1] = target: NET1_(ΔNTR) 'Interface-1' mutant (F55R), made with an N-terminal His6-SUMO tag (human) (UniProt O95631); assay: AUC; sedimentation velocity, 20 °C; binary NEO1_(FN456)-NET1_(ΔNTR) complexes (NET1 wild type at different concentrations, or Interface-1/-2 mutants) mixed equimolar, 10 mM HEPES pH 7.5, 150 mM NaCl, 2 mM CaCl2
[2] = target: NET1_(ΔNTR) 'Interface-2' mutant (Q443N/R445T), made with an N-terminal His6-SUMO tag (human) (UniProt O95631); assay: as above
[3] = target: NET1_(ΔNTR)^F55R with C-terminal biotinylated Avi-tag (SPR ligand) (human) (UniProt O95631); assay: SPR; NEO1/DCC:NET1 binding site analysis; biotinylated NET1_(ΔNTR) wild type, Interface-1 and Interface-2 mutants captured at 1007, 1027 and 937 RU; analytes NEO1 and DCC FN456 and FN56, two-fold series from 50 μM; equilibrium, one-site model; 25 °C, 10 mM HEPES pH 7.5, 150 mM NaCl, 0.05% polysorbate-20, 1 mg/ml BSA
[4] = target: NET1_(ΔNTR)^Q443N/R445T with C-terminal biotinylated Avi-tag (SPR ligand) (human) (UniProt O95631); assay: as above
1D4-tagged NET1_(ΔNTR) = 1D4-tagged NET1_(ΔNTR) (UniProt O95631); assay: proximity ligation assay (PLA); conditions: COS-7 cells co-transfected with NEO1-mVenus and full-length RGMB, incubated with NET1ΔNTR; p = 0.0107; parent: est. 59; read off a plot

NEO1 FN type III domains 4 to 6 (NEO1_(FN456)) (domain or fragment)
stoichiometry N [1]: 1 NET1:NEO1 | stoichiometry N [2]: 1 NET1:NEO1 | fold lower affinity than wild-type NET1 (ΔNTR) [3]: 10 fold | fold reduction of binding against wild-type NET1 (ΔNTR) [4]: 2 fold

full-length GPI-anchored RGMB (RGMBFL), N-terminal FLAG (from UniProt Q6NW40) A186R
response (No. of PLA foci) (1D4-tagged NET1_(ΔNTR)): 22
